From the nanobody polyreactivity screen of Harvey et al. (2022)

experiment: yeast display, Sf9 membrane polyspecificity reagent, FACS + sequencing; frameworks hold sequencing errors
In short: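 Genes from sorted yeast were amplified by colony PCR, read by MiSeq 2 × 250 sequencing and filtered on CDR length. These cells carried a synthetic nanobody library in Saccharomyces cerevisiae BJ5465 and were sorted by FACS into low and high (top ~1%) gates on anti-HA and streptavidin fluorescence. Polyreactivity is labelled according to the gate of origin.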

Sequence	polyreactivity (PSR sort gate)
QVQLVESGGGLVQAGGSLRLSCAASGSIFYSNTIGWYRQAPRKERELDAAITSGGGTNYADSVKGRFTISRDNAKNTVYLQMNSLKPEDTAVYYCAAVTKTLYRSYFLMYYWGQGTQVTVSS	high polyreactivity
QVQLVESGGGLVQAGGSLRLSCAASGRTYRRYAMGWYRQAPGKERELVASISRTGGSTYYADAVKRRYTISRDNAKNTVYLQMNSLKPVDTAVYYCNAGPSVGWYNYWGQGTQVSVSS	high polyreactivity
QVQLVESGGGLVQAGGSLRLSCAASGRIFRAYAMGWYRQAPGKERELVAVITGSGGSTYYADSVKGRFTISRDNAKNTVYLQMNSLKPEDTAVYYCAAPVHTASGRWVPGYYYWGQGTQVTVSS	high polyreactivity
QVQLVESGGGLVQAGGSLRLSCAASGSTLFTYAMGWYRQAPGNERELVAAITSSGSTYYADSVKGRFTISRDNATNTVSLQMKSLKPEDTAVYYCAGPGYRYTNYYYWGQGTQVTVSS	low polyreactivity
QVQLVESGGGLVQAGGSLRLSCAASGSTFLYNRMGWYRQAPGKERELVAAISSVGSTYYADSVKGRFTISRDNAKNTVYLQMNSLKPEDSAVYYCAASYDWRAYRRDFYYWLTGDYWGQGTQVTVSS	low polyreactivity
QVQIVESGGGLVQAGGILRLSCAASGSTFSFNAMGWYRQAPGKERELVAAITGGDGTIYADSVKGRFTISRDNAKNTVYLQMNSLKPEVTAVYYCAADQWGSTEDYWFTYGYWGQGTQVTVSS	low polyreactivity
QVQLVESGVGLVQAGGSLRLSCAASGNILGYNAIGWYRQAPGKETELVAAISWIGGSTYYADSVKGRFTISRDNAKNTVYLQMNSLKPEDTAVYYCAARYRTYFTYEYWGQGTQVTVSS	low polyreactivity
QVQLVESAGGLVQAGGSLRLICAASGSTFTYYPMGWYRQAPGKERELVAAISGSGGRTYYADSVKGLFTISRDNAKNTVYLQMNSLKPEDTAVYYCNARATSLVPGRPKQYTYYYWGQGTQVTVSS	high polyreactivity
QVQLVESGGGLVQAGGSLRLSCAASGSIFGYNVMGWYRQAPGKERELVAAITVNGGRTYYADSVKGRFTISRDNAKNTVYLQINSLKAEDTAVYYCAARVTGTQRSGYYWGQGTQVTVSS	high polyreactivity
QVQLVESGGGLVQAGGSRRLSCAASGRTFVSNVMGWYRPAPGKDRELVAAINWSGDSTYYADSVKGRFTISRDNAKNTVYLQMNSLKPEDTAGYYCAVQGGYFDTWDGDYWGQGTQVTVSS	low polyreactivity
QVQLVESGGGLVQAGGSLRLSCAASGSIFYPYAMGWYRQAPGKERELVADINSDGSTTYADSVKGRFTISRDNAKNTVYLQMNSLKPEDTAVYYCAVDVSVNWPLLERYEYWGQGTQVTVSS	low polyreactivity
QVQLVESGGGLVQAGGSLRLTCAASGSTFEVYAMGWYRQAPGKEREFVAAITVDGGSTYYADSVKGRFTISRDNAKNTVYLQMNSLKPEDTAVYYCAADSGSWEYYYWGQGTQVTVSS	low polyreactivity
QVQLVESGGGIVQAGGSLRLSCADSGFISVTYAMGWYRPAPGKERELDAAITYSGGSTYYADSVKGRYTISRDNAKNTVYLQMNSLKPEDTAVYYCAKKRRVVVLSVQGDYWGQGTQVTVSS	low polyreactivity
QVHLVESGGGLVQAGGSLRLSCAASGFTFGWNAMGWYRQAPGKERELVASINSGGSTYNADSVKGRFTISRDNAKNTVYLEMNFLKPEDTAVYYCATAPYVTSRRYGPYEYWGQGSQVTVSS	low polyreactivity
QVQIVESGGGLVQAGGSLRLSCAASGIIFDYYAMGWYIQAPGKERELVATITSGGSTNYADSVKGRFTISRDNAKNTVYLQMNSLKPEDSAVYYCAARTYWFPDIYPGLGMDYWGHGTQVTVSS	low polyreactivity
QVQIVESGGGLVQAGGSLRLSCPASGSTFSRYAMGWYRQAPGKERELVAAISWSGGRTYYADSVKGRFTISRDYATNTVYLLMNSLKPEDTAVYYCAARKLVVILREEYWVQGTQVTVSS	high polyreactivity
QVQLEESGGGLVQAGGSLRISCAASGRTFRRYAMGWYRQAPGKERELVATISRGGSTYYADSVKGRFTISRDNAKNTVYLQMNSLKPEDTAVFYCAAQRQVIYASEENYWGQGTQVTVSS	high polyreactivity
QGQLVESGGGLVQAGGSLRLSCAASGRTFSVNDMGWYRQAPGKERELVAAMSFSGGRTYYADSVKGRFTISRDNAKNTVYLQMNSLKPEDTAVYYCAADIRGYDYWGQGTQVTVSS	high polyreactivity
QVQLEESGGGLVQAGGSLRLSCAASGYTFESYPMGWYRQAPGKEREFVAVISSSDTSTSYADSVKGRFTISRDNAKNTVYLQMNSLNPEDTAVYYCAAYSSPYYITYYWYNYDYWGQGTQVTVSS	low polyreactivity
QVQLVESGGGLVQAGGSLRLSCAASGRIFSTNAMGWYLQAPGKERELVAGINSGGSTNYADSVKGRFTISRDNAKNTVYLQMNSLKPEDTAVYYCNASLPVDSWYVQYGVDYDYWGQVTQVTVSS	low polyreactivity

Sequence	polyreactivity (PSR sort gate)
QVQLVESGGGLVQAGGSLRLSSAASGRTFRPNAMGGYRQAPGKERELVAGITRGGSTKYADSVKGRFTISRDNSKNTVYLQMNSLKPEDTAVYYCAVERGSYSYDRPFYYCGQGTQVTVSS	high polyreactivity
QVQLVESGGGLVQAGGSLRLSCAASGRTFRYKAMGWYRQAPGKERELVAAITWNGGRTYYADSVKGRFTISRDNAKNTVYLQMNSLKPEDTAVYYCAAQGTRVDRYPKYDYWGQGTQVTVSS	high polyreactivity
QVQLVESGGGLVQAGGSLSLSCAASGITFVIYVMGWYRQAPGKERELVAAISWIGGSTYYADSVKGRFTISRDYAKNTVYLQMNSLKPEDTAVYYCATDYVVVVSTGYDYWGQGTQVTVSS	low polyreactivity
QVQLVESGGGLVQAGGSLRLSCAASGSTVDWNAMGWYRQAPGKERELVAGITFRSGSTYYADSVKGRFTISRDNAKNTVYLQMNSLKPEDTAVYYCNVKLYYYYFRMYYWGQGTQVTVSS	low polyreactivity
QVQLVESGGGLVQAGGSLRLSCAASGSTFINYAMGWYRQAPGKERELVATISSNGGSTYYADSVKGRFTISRDNAKNTVYLQMNRLKPEDTAVYYCAADGKQYGFYYWGQGTQVTVSS	low polyreactivity
QVQLQESGGGLVQPGGSLRLSCAASGYISSWYPMGWYPQAPGKEREFVATIAPGATTYYADSVKGRFTISRDYANNTVYLQMNSLKPEDTAVYYLAAGPENKDFYSYWCQGTQVTVSS	low polyreactivity
QDQLVESGGGLFQEGGSLRLSCSASGSTFWVNTIRWYRQAPGKATELVADISSGGNTYYAHSVKGRFTISRDNAKNTVYLQMNSLKTEDTAVYYCNADPFTRWVIRDDYGGQGTQVTVSS	low polyreactivity
QVQLVESGGGLVQAGGSLRLSCAASGRTFYHYAMGWYRQAPGKERELVAAITGSGGSTSYADSVKGRFTISRDNAKNTVYLQMNTLKPEDTAVYYCAAVQFPTPLLLYDSWGQGTQVTVSS	low polyreactivity
QVQLVESGGGLVQAGGSLRLSCAASGRTIRGYTMGWYRQAPGKERELVATITKRGGSTTYADSVKGRFTISRDNAKNTVYLQMNSLKPEDTAVYYCNKDTITSTWTPYTSWFGYWGQGTQVTVSS	high polyreactivity
QVQLQESGGGLVQAGGSLRLSCAASGSISAVGAMGWYRQAPGKEREFAASVNWGTNTNYADSVKGRFTISRDNAKNTLNLQMNSLKPEDTAVYYCAVQPDWETRHDYWGHGTQVTVSS	low polyreactivity
QVQLVESGGGLVQAGGSLRLSCAASGRTFRYYAMGWYRQAPGKERELVAAISSSGDRTYYADSVKGRFTISRDNAKKTVYLQMNSLKPEDTAVYYCAADRGARGDYWGQGTQVTVSS	high polyreactivity
QVQLVESGGGLVQAGVSLRLSCAASGFTFWRNAMGWYRQAPGKERELVAAISASGGSTYYADSVKGRFTISRDNAKNTVYLQMNSLKPEDTAVYYCAADTQGFYRYDYWGQGTQVTVSS	low polyreactivity
QVQLVESGGGLVQAGGSLRLSCAASGFILDWYTMGWYRHAPGKEREFVAAITSRGGDTYYADSVKGRFTISRDNAKNTVYLQMNSLTPEDTAVYYCNKGFKLWPRYGYDYWGQGTQVTVSS	low polyreactivity
QVQHVESRGGLVQAGGSLRLSCAASGRTFSRNAMGRYRQAPGKERELVATITSDGSTNYADSVKGRFTISRDNAKNTVYLQMNSLKPEDTAVYYCAAGEQSSIIGAHDYWGQGTQVTVSS	low polyreactivity
QVQLVESGGGLVQAGGSLRLSCAASGRIFAANVMGWYRQAPWKERELVAAISWNGGSTYYADSVKGRFTISRDNAKNTVYLQMNSLKPEDTAVYYCAVRGSYRGWYDYWGQGTQVTVSS	high polyreactivity
QVQLVESGGGLVQAGGSLRLSCAASGSTFSGYAMGWYRQAPGKEREFVATISISGGSTYYADSVKGRFTISRDNAKNTVYLQMNSLKPEDTAVYYCNADYYFSWGSIVDYWGQGTQVTVSS	low polyreactivity
QVQLVESGGGLVQPGGSLRLSCAASGGIFLGNAMGGYRQAPGKERELVAGITWSGGRTYYADSVKGRFTISRDNAKNTVYLQMTSLKPEDTAVYDCNKDTPGTRFYGIYSYDYWGQGTQVTVSS	low polyreactivity
QVQLVESGGGLVQAGGSLRLSCAASGSTLFFNARGWYRQAPGKERELVAGITDGGNTNYADSVKGRFTISRDNAKNTVYLQMNSLKPEDTAVYYCNARYSKKGESQREYDYWGQGTQVTVSS	low polyreactivity
QVQLVESGGGLVQAGGSLRLSCAASGSTFYNYAMGWYRQAPGKERELVAAITSSGGSTYYADSVKGRFTISRDNAKNTVYLQMNSLKPEDTAVYYCAATRRDRRKSFTYRYDYWGQGTQVTVSS	high polyreactivity
QVQLVESGGGLVQAGGSLRLSCAASGSIFISNAMGWYRQAPGTERELVAAISRSGARTYYADSVKGRFTISRDNAKNTVYLQMNSLKPEDTAVYYCAVVGYSPYKYDYWGQGTQVTVSS	high polyreactivity
